One experiment concerns the target rat DEspR (rat) (UniProt D3ZGZ6). The experiment is described as follows: in vivo contrast-enhanced ultrasound of carotid arteries, pre-/post-destruction difference, isotype control microbubbles in Tg25+ rats.
Experiment [1] concerns the target T1, human dual endothelin-1/VEGF signal peptide receptor (hDEspR) (human) (UniProt B0L3A2).
T1 sequence: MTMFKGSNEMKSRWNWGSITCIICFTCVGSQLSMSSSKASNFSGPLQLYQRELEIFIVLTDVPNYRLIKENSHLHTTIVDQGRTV
The experiment is described as follows: microbubble adherence to HUVECs, isotype control at 800× MB to cell ratio.

Experiment [2] concerns the target T1, human dual endothelin-1/VEGF signal peptide receptor (hDEspR) (human). The experiment is described as follows: cell-based or functional assay.
Experiment [3] addresses T2, antigenic hDEspR 9-aa peptide, NH2-terminal 9 amino acids of hDEspR (human).
T2 construct: Free peptide coated directly on ELISA wells; The KLH conjugate was used only for immunisation; also called DEspR(1-9)
T2 peptide: MTMFKGSNE
The experiment is described as follows: indirect ELISA, free hDEspR 9-aa peptide coated on the plate, hybridoma supernatant at 1 ug/ml in two-fold serial dilutions (1 = 1/2 ... 12 = 1/4096), HRP anti-IgG, OD450. As to the method: Monoclonal antibody characterization by ELISA and Western blot analysis. The M₁[…]₉ antigenic peptide was coated directly on wells of a microtiter plate. Appropriate dilutions of primary antibodies were incubated at 37° C. for 1 hr. The wells were then incubated with HRP labeled anti-IgG (SIGMA cat#A0168) at 1:9000 at 37° C. for 1 hr. The reactions were visualized by the addition of 3,3′5,5′-tetramethylbenzidine substrate (incubation at 37° C. for 10 min) and read spectrophotometrically at 450 nm. Western blot analysis was done as described using equal amounts of whole cell protein extract (40 μg) from Cos1 cell transfectants stably expressing hDEspR[17] and corresponding candidate monoclonal antibodies raised against hDEspR specific synthetic peptide. Immunoreactive hDEspR (10 kDa polypeptide) was detected by chemiluminescence using the ECL Western Detection kit (GE Healthcare).

The target in experiment [4] is T3, human dual endothelin-1/VEGF signal peptide receptor (hDEspR) (human, UniProt B0L3A2 1-85).
T3 sequence: T1 sequence
The experiment is described as follows: cell-based or functional assay.

Regarding “control isotype-targeted microbubbles (MBC)”, the Contrast intensity signal Δ in the experiment with rat DEspR (rat) is 1.9. In experiment [1], the % of HUVECs bound was 6.8%.

As for “endothelin-1 (ET1) (from UniProt P05305 53-73) (ligand)”, in experiment [2], the BRCA1 S1497 phosphorylation, % change from control (antibody microarray, Cos1-hDEspR, 30 min, 10 nM) was found to be 32 % CFC; the CDK1/2 T14/Y15 phosphorylation, % change from control stood at 53 % CFC; the CDK1/2 Y15 phosphorylation, % change from control was determined as 281 % CFC; the ERK1/2 T202 + Y204; T185 + Y187 phosphorylation, % change from control came to 135 % CFC. In experiment [2], this molecule yielded an FAK S722 phosphorylation, % change from control of 55 % CFC; an FAK S732 phosphorylation, % change from control of 62 % CFC; an FAK panspecific (expression), % change from control of 205 % CFC; a Met panspecific (expression), % change from control of 384 % CFC. In addition, in experiment [2], the PCNA panspecific (expression), % change from control was -47 % CFC; the PKCa T638/T641 phosphorylation, % change from control was 137 % CFC; the PKCe panspecific (expression), % change from control was 103 % CFC; the Raf1 S259 phosphorylation, % change from control stood at 12 % CFC. In experiment [2], this molecule registered an SHP2 S576 phosphorylation, % change from control of 14 % CFC; an STAT1 S727 phosphorylation, % change from control of 86 % CFC; an STAT1 Y701 phosphorylation, % change from control of 95 % CFC; an STAT3 S727 phosphorylation, % change from control of 133 % CFC. For the same molecule, in experiment [2], the Shc1 (ShcA) Y349, Y350 phosphorylation, % change from control stood at 9 % CFC; the Smad 1/5/9 S463 + S465/S465 + S467 phosphorylation, % change from control was 18 % CFC; the Src Y418 phosphorylation, % change from control was -11 % CFC; the Src Y529 phosphorylation, % change from control is -20 % CFC.

B1: anti-hDEspR 7C5B2 monoclonal antibody (antibody, IgG2b, V domains shown)
VH: QVQLKESGPGLVAPSQSLSITCTVSGFSLTSYDISWIRQPPGKGLEWLGVIWTGGGTNYNSAFMSRLSISKDNSKSQVFLKMNSLQTDDTAIYYCVRDRDYDGWYFDVWGAGTTVTVSS
VL: DVLMTQTPLSLPVSLGDQASISCRSSQSIVHSNGNTYLEWYLQKPGQSPKLLIYKVSNRFSGVPDRFSGSGSGTDFTLKISRVEAEDLGVYYCFQGSHVPYTFGGGTKLEIK
notes: Tested as hybridoma supernatant and as purified antibody; also called 7C5B2 antibody; 7C5B2 anti-DEspR antibody
In the case of B1, the binding result in experiment [3] is given as “binds”. Besides, in experiment [4], the “EC50, inhibition of MDA-MB-468 tumor cell invasiveness” value came to 3.55 nM; the “EC50 for # branching points, inhibition of serum-induced HUVEC tubulogenesis” value is 3.97 nM; the “EC50 for total tube length, inhibition of serum-induced HUVEC tubulogenesis” value is 4.34 nM.

The values above are taken from US20130022551A1 (TRUSTEES OF BOSTON UNIVERSITY, published 2013).
